In PMC4416878:

Assays:
[1] = biological target: Golgi anti-apoptotic protein (GAAP) from camelpox virus, wild type, purified (camelpox virus (CMLV)); assay: SEC
[2] = biological target: Golgi anti-apoptotic protein (GAAP) from vaccinia virus strain Evans, purified (vaccinia virus (VACV) strain Evans); assay: SEC

| Substance | percent of protein oligomeric [1] | percent of total protein in oligomeric states (% of total protein) [1] | percent of total protein in oligomeric states (% of total protein) [2] |
| --- | --- | --- | --- |
| Golgi anti-apoptotic protein (GAAP) from camelpox virus, wild type, purified (natural protein) | 84% | 87 |  |
| Golgi anti-apoptotic protein (GAAP) from vaccinia virus strain Evans, purified (natural protein) |  |  | 64 |
